Columns and labels:
[1] = system: immortalized adult rat brain endothelial cells (SV-ARBEC); assay: In vitro transport rate across BBB endothelial cell monolayer; format: in vitro ADME; settings: compared with control antibodies 12F6A, CRL2434 and C37H; FIG. 3
From the text: We used an in vitro BBB endothelial cell layer to model in vivo cross BBB flux rates for each FC5 containing protein. The in vitro model uses a monolayer of immortalized adult rat brain endothelial cells (SV-ARBEC) in a monolayer assay system validated for tightness with small molecules (Garberg, P., Ball, M., Borg, N., Cecchelli, R., Fenart, L., Hurst, R. D., Lindmark, T., Mabondzo, A., Nilsson, J. E., Raub, T. J., Stanimirovic, D., Terasaki, T., Oberg, J. O., and Osterberg, T. (2005) Toxicol In Vitro 19(3), 299-334). The methods for the in vitro flux rate determinations are nearly identical to those described in (Caram-Salas, N., Boileau, E., Farrington, G. K., Garber, E., Brunette, E., Abulrob, A., and Stanimirovic, D. Methods in molecular biology 763, ed. 2010, 383-401).

mu pain receptors = target: T1, mu pain receptors (Rattus norvegicus, UniProt P33535); assay: Hargreaves model of thermal pain, Dalargin alone or linked; format: in vivo; settings: for Fold potency compared to FC5-Dal in Hargreaves model: IV, based on molar ratio of Dalargin injected
T1 construct: from tissue; host or cells: rat brain (periaqueductal region), in vivo
T1 sequence (P33535 whole entry): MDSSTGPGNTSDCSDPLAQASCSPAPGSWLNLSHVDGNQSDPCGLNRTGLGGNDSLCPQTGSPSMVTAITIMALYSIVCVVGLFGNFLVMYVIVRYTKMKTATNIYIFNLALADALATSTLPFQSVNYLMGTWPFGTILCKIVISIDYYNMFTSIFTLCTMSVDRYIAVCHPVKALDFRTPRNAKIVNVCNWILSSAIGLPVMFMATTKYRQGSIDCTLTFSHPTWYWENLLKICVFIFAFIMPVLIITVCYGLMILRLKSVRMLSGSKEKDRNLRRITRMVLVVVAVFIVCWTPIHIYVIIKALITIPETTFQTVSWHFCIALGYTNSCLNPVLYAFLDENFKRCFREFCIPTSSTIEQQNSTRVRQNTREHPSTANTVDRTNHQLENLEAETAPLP
From the text: The Hargreaves model measures increased sensitivity to thermal pain induced by injection of Freud's adjuvant in a paw. The thermal pain can be suppressed upon binding of a six amino acid peptide Dalargin to the mu pain receptors expressed in the peri-aquaductal portion of the brain. […] Thus intravenously injected Dalargin must be linked to a receptor mediated transporter to allow cross BBB transport and suppression of pain. To evaluate the transport of Dalargin mediated by FC5 containing molecules across the BBB the Hargreaves animal model was used to compare the potency of various molecular forms of FC5 Vhh linked to Dalargin. The negative control molecule for FC5-Dalargin was EG2-Dalargin and for FC5-Fc-Dalargin was Fc-FC5-Dalargin.
Prior to intravenous (IV) injection each molecule was initially tested by intracerebroventricular (ICV) injection as a positive control to insure all linked molecules are functionally active and able to induce pain suppression. Both negative control and positive test molecules would be expected to suppress pain upon ICV injection as the molecules are injected directly into the cerebral spinal fluid and are able to diffuse to and block the periacquiductal mu pain receptors. […] Next each Dalargin labeled molecule and corresponding Dalargin labeled control protein were evaluated for efficacy upon IV administration. Initially, the efficacy of FC5-Dal versus the control (EG2-Dal) was compared. […] It is interesting to note that three doses of FC5-Dal at 7.5 mg per kg (mpk) per dose as needed prior to observing the initial pain suppression.
Chronic pain suppression is expressed as the percentage of maximum possible effect (% MPE). The value is based on the area under the curve for pain suppressed animal relative to the contralateral control paw over the time frame of measurement. The efficacy of molecules injected either ICV or IV is shown as a percent of maximum possible effect (% MPE) in the Hargreaves model. […] Dose in mpk for intravenous (IV) dosing values are indicated as per injection followed by the number of injections.

[2] = Circulating pharmacokinetics of FC5 containing molecules in rats; format: in vivo; settings: rat, intraperitoneal 3 mpk; for Beta-phase half life (h), assay format Fluorescence: AL680 labeled molecules, fluorescence from sera
Protocol: To understand the exposure of the BBB endothelium to each of the FC5 containing antibodies the pharmacokinetics the molecules were determined in rats. Animals were dosed intraperitoneally at 3 mpk with either the FC5 Vhh N-terminally (FC5-Fc) or C-terminally (Fc-FC5) fused to a human Fc domain. Concentrations of FC5-Fc or Fc-FC5 in the plasma were determined at various time points by ELISA. The results were analyzed to determine the beta-phase half-lives of each construct (Table II).
Half-life was determined by ELISA detection of the human Fc from rat serum or with AL680 labeled molecules and the fluorescence determined from the sera. No difference was observed between molecules in which the half-life was determined by fluorescence versus ELISA. Molecules were injected intraperitoneal at 3 mpk.

SV-ARBEC = assay: Fluorescent flow cytometry binding to SV40 transformed rat BBB endothelial cells; settings: SV40 transformed cell line vs primary cells
Protocol: (§1) The binding affinity of each molecule was evaluated in separate Fluorescent Flow Cytometry assay using freshly isolated rat BBB endothelial cells, SV40 transformed rat BBB endothelial cells (Caram-Salas, N., Boileau, E., Farrington, G. K., Garber, E., Brunette, E., Abulrob, A., and Stanimirovic, D. Methods in molecular biology 763, ed. 2010, 383-401) and to Hek293 cells transiently transfected with the previously identified target TMEM30A.

Primary rat BBB EC = assay: Fluorescent flow cytometry binding to primary rat BBB endothelial cells; settings: read-out: Affinity (nM), Primary rat BBB EC
Protocol: as §1

Molecule	rate of transport across in vitro SV40 rat BBB transformed endothelial cell line [1]	Fold potency compared to FC5-Dal in Hargreaves model (mu pain receptors) [fold]	average % MPE after the first 0.5 h (mu pain receptors; rat, single IV dose 0.5 mpk) [% MPE]	half-life when fused to a human Fc compared with FC5 Vhh alone [2]	Beta-phase half life (h), assay format Fluorescence [2] [h]	Beta-phase half life (h), assay format ELISA ([2]; ELISA detection of human Fc from rat serum) [h]	fold weaker binding than to primary rat BBB endothelial cells (SV-ARBEC)	Kd (Primary rat BBB EC) [nM]
FC5-Fc	increased rate of transport	80	50	significantly longer	39.4	35.7	about 7 fold	–
Fc-FC5	increased rate of transport	<0.1	–	significantly longer	38.6	–	–	–
FC5: llama single domain VHH antibody binding TMEM30A, SEQ ID NO: 10, with myc and His tags (protein, myc and His tags) VHH: EVQLQASGGGLVQAGGSLRLSCAASGFKITHYTMGWFRQAPGKEREFVSRITWGGDNTFYSNSVKGRFTISRDNAKNTVYLQMNSLKPEDTADYYCAAGSTSTATPLRVDYWGKGTQVTVSS	increased rate of transport	1	–	–	–	–	–	> 2000

— US9676849B2, “Enhancement of transport of therapeutic molecules across the blood brain barrier” (Biogen Idec MA Inc., priority 2012, dated 2017)
